Literature values as cited in PMC5838028.
pKd: −log10 of the molar value.

Molecular target: glypican-3 (Homo sapiens) (UniProt P51654)
Sequence (P51654 359-554): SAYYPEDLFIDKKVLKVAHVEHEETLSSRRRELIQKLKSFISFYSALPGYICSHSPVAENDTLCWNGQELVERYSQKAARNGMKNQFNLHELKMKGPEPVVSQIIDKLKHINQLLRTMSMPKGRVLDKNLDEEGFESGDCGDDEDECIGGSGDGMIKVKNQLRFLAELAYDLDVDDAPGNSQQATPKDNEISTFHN

pKd: 9.17
Substance: codrituzumab
